Assay: soluble fraction after stress (log2 fold change); higher = more stays soluble; pooled small domains, quantitative proteomics
Details: stress: pH 4
In short: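 Aggregation propensity is read out as the fold change in how much of each domain remains soluble after acid stress. The custom small-domain libraries were pooled, held at pH 4 and analysed with high-throughput quantitative proteomics. On the log2 scale used, higher values mean more of the domain stayed soluble.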

Sequence	soluble fraction (log2)
HMAIKTGAVTGHGVKVRKGPSTNEKAIHDVLYGSRLQILEEKNGFLKAKFEDGTTGWISKQFVTTTDKNLL	-0.0244
HMAIKWTPEIEDEVSNKLKEKWSPEQISAWLKKNKSIMISHQRIYQFIVEDKMSGGNLYRNLRQ	0.172
HMAIPTTDSDKATDAQIKQIKLLGDIHPNLKLDAWLERNHVTWETLTREQAGNMMKAIKNKYGD	0.132
HMAISEAERARLQTKIKERNKMARWINTNLNPTSKIRNINPAETVRKLMTQDDADSLERSLDAFMEA	0.0822
HMAIVNVEVPSLVGKTEQEARNLLTEAGLKVNVVNDEDESKNDGVVLRQSKDAGTEVQEGTTITITVNKVS	-0.467
HMAKDDFMSFVKAVWPEFIEGAHHRVIAQKFNDLATGKITRLIVNMPPRHTKSEFASYLLPAW	-0.144
HMAKDEYGLTSNQRAFADEYIRNKGNATQAYLFAYPHIKKENTAAVNASRLLRNAKVSKYIADRTKEIL	-0.146
HMAKIDSRKALIDQLTTTFTRAQLEELITKNELSTDARFFLSQWNAKGWIRKTAKNVYEKLR	0.0107
HMAKLTPDQQELRAIRIELQMSQPDFADAININVPRLSSYEYGRTAGVPTSIMEAARELKRSMSR	-0.324
HMAKRDEIEAELPRFVATITQELAASRDVLSMIEHYKQNSGPVFSAELDVLTADMRSGSYEAALTRFEARF	-0.0581
HMAKRKYKSFKDVAEFAQKLGIKSSTEWWAYVRGHEIPSDIPKDPSTYYKKEWTTWGDFLGTGYVSSA	≥ 0.43
HMAKRTVPSVAEAIDNFRRQHRRMPSYAEMLPLLGVRSKSVVHFWINKLLENGLLEKDDKGYLTPGS	-0.241
HMAKSPYDVLGLKEDAPFDEVKKRYRELVKKYHPDILMGRGESEEMIEKSTRKLQEINEAYETIKQRA	-0.0402
HMAKVDIPHEMVDQRIDEIVEEIKMNLESQNMSLDDYLKRMNQTEAQLRANYEATAAEQVRQGLV	-0.982
HMALDSQEVGYNIEARGARPVVAQLGKAGQFSAVENSIRLGDDNWIALAPKLAGGGNAGFTAGIKSALS	-0.293
HMALIGSNLRHLRNERKLSQQELADLIRVGRTTIANIEANLANPGHKTLLEIVKVFDITIDELLHTDLTK	-0.684
HMALKPKITIEELIRILNESKDLSDSETAKILNKDYTTAKYGKEFTSINVQGARYALDIATNTS	-0.323
HMALLSNEDIMFNLEFNRDLAVASNDGVSRDEFLRNKYGISEEEYNMLRARYGDGLNAARIKEYVGQRD	-0.36
HMALLSNTVDELHAGMRLDSYLFESGLYPSRSFAVKQIEAGKVFLNGDAVTKKTLVSNGDFIVYELEE	-0.506
HMALMLGGLIVYLNTTAPRDDIDLIELSKDTKAMAAFGNKLASPDYNGKQFALDWHELSRDEIMSKYFS	-1.82
HMALPDWLDPEAWAAWKRHRKAIRKPLTEDAVALSIRELAKLRDEGYGPTSVIENAILKGWQGLYPPK	0.143
HMALPGESVYVSILQSGSNRDQGVGYLDDGTMVVVDGAIKDIGKSIEVVINKSHQTVAGKMLFAKKVA	-0.144
HMALPQPDDDRQDTKKRILDMAEDLLLTRGFNAFSYQHISSELGMKNAAIHYHYPKKNDLGVAVIQRYRRR	-0.178
HMALQDKYAELLTAANTMGVTNLAVAEKDGTLHVSGTAKSTADYDSLWALYDKIDPNMASGDLMMNI	-0.0324
HMALQDKYKELTDAATAAGVTDLQVREQDNVLYIDGTAPSGAVKDQLWAIYDKIDPNFVSGDLVLNVNVD	-0.49
HMALTLDEARTQGRVGETFYGYLVALKTDAETEKLVNDINAERKASYQQLAKQNNVSVDDIAKLAGQKLV	-0.113

Sequence	soluble fraction (log2)
HMALWFDEWKKYQDTIASADLLPDKAERDALIAQAEDRFNYWMDIYPRSASLNHSFDDLYEEHRRKIE	-1.33
HMAMDYEGFKKSVYALTSIDLNAYKERQMKRRIDTLIAKNKYNGYEDYTAAIKKDKALFEEFVNYLTIN	-0.521
HMAMMTKQRLIQLIHIARNDLQMDEDTYRQMLQGLTGKASTKGMDTPQLNRVLESMKKKGFRIK	≥ 0.43
HMAMNLQETVLMQLRDLILRGTFEPGQRLSEQPLAERLKASRTPVRSALVTLEQEGLIEASETGKYLVRQ	-0.845
HMAMTNEEREALISEIKQTVNNSIDLKKDISDTEIKEAITQAVFERSEKSYLSIAEKQDIITAVFNSMR	-0.159
HMANADVVLVDLDKEYTVDAAKFHSVVKHSPFNGFAVKGAPVLTIVRGTVVAENGEVVGQPGHSKMVRP	-0.0368
HMANEGWDIYKLDIRNHKQPNGEYYSEKEIQSTINNTFGKGSFNVDWKKYEKDKEYREKTNYYYFQAKYFV	-0.24
HMANHIAAIHVLKSKLQMSDSDYRVLITGLTQKASTKDMSDIERQRVRDHMQGLAERMGVVK	0.0887
HMANIAVTIPTGSSGDRIADILLQAGLIKDKQDFNQAVIAAGAEGKLRAGYFVIPSNATPAEIISILT	-0.253
HMANILKHKNKDGVITSYTIRVYHGYDEAGKRLRPYTMNYKPAPNMTARQIEKELNRQAVQFEEQIKNGYA	-0.182
HMANKLTSTNLAKQHKMGLSEMYAELMNSGYLIEKDGKYELTPLGISIGGESKPNRYKKGEFYFLWPSDIS	0.22
HMANLLNLREIPVANIRPELTMFLIPGENITQAFQTIRDQVVFTNKRLIVANVQGLTGKKVSYTSYPY	-0.251
HMANPFQELTERELDVLRQVAAGKNNREIAEALFIGEKTVKTHISNILSKLHLADRTQAAVYAWQQGMM	-1.14
HMANTVVMPNLLGKTMTEAKIELKELGIDITLKGSESSSKYSAGQIMEQNIAEGTKVEVGSSVEVTIAGS	0.334
HMAPAPDEAFAEFVRSSAPSLTRTAWLLTGDRGHAQDLVQNAYAKTLQAWGRLDAEGALAYTRRAVIT	-0.0327
HMAPDGIEDKEGWLKVLPMITNLSIQMQNLQARGMDYEHIRNLLHETLLRYDDRIDSNLFIPNV	-0.198
HMAPDNDELEKAKKIVNAFIEAKAKGLGVVSLGTKMIDAPVVKRAQKIIDQTIVMGKLSLNWQDEFFN	-0.32
HMAPEVTVHDGSIVVRGHVGGVTVYDESGRQIASVQSRGAVAIPVPAGHTYLYIVKPEGKPAIKVRAAH	-0.0212
HMAPKSALKIIEQISNNPRATMTDLANLTGYSRRWVAQTIKRLQEENIIKRIGSDKSGYWEIIG	0.417
HMAPLATLEADGNGAVKLPNLAGHAIREVAAALGGANLALIPIGSGTSWKQNPAPGTILHKGDTVTVYF	-0.353
HMAPLEPLTDRETEMLVRLANGASNKVMARESFVSENTIKFHLKNIYAKLGVTSRLQAIAAARNQGLI	-0.0342
HMAPLRTQYVNVNYANAAEIKTLISGADKEVGSLLSERGSVVVDKRTNTLIIQDTQARLNDIGDLIEQLD	-0.52
HMAPMYGEFENVRLTDAQLDKLNARFPPEQVQREIEALSGYMRSKGKRYADHYATLLNWLRRDFPP	-0.112
HMAPNVEENSKLIGEIGMTLTPLRPSGIATINNRRVDVVSNGDFIDQDERVMVKRVQGARVVVIPV	0.1
HMAPPDFTTFMRNYQDMVYSTAVRLIGNETQAEDIAQEVFIKAHAHFENLRTSPSAGGWLKTVATNLSIN	-0.949
HMAPQAETLLRQVMALPSKDRAVLYLHYYEGFSTREVGDMLHISQSAVTTRLLRARKKLKEIL	-0.754

Sequence	soluble fraction (log2)
HMAPRLTERERQVLQLIAEGLTSMQIGDRLHIAASTVDVHRRNLMRKLDLHNVADLTRYAITQGISP	0.00348
HMAPRQDIAYYTVKPGDTVLAIAEKFGLQPETLMWSNSIIEQNPDRLSIGDELRILPVDGVLHVVK	-0.666
HMAPRSSAVYFYLSQVALKKNQPRKAEAMARRGLTVSQDANRRRALWQLILRSGQAQNNTRVIREAQQAL	-0.0754
HMAPSLSEYAYEEIKHAIERGVYPPGAKLITQEIADRLGISRTPVVAAVNRLTAEGYADAVPQHGIFVK	0.0288
HMAPVLTRREHEVLHLLTDGLDNRTIARNLFISEATVKFHLHNIMGKFGVHRRAALVSTALRG	-0.182
HMAPVTPEERAQAMEEYKAMVTIEGYTPPKNIIEQNYKRGLWSETMLNMAVTKGAITEAEKLEIMN	0.0947
HMAQIVNLPRKNVNGASYYYYEVQPKETIYSISRKLGVSGAEIQRHNPSVADGLKIGQVLYFPAEG	-0.0603
HMAQLPADMSKVKSADISEAQLQEFIQKATSSGYNMNQIEMEFAKRGMSENEVSLLRPRLRRLMAS	0.212
HMAQLSDDEQAIIDTITRRGDATMSELIASVNVSTPRLMSMLIDMEFRSLITALPGGRYQIRLIN	-0.464
HMAQLTPREREVLVLIAEGKSNKEIADQLNIGVRTIETHRERIMRRLNIHSVAGLTKYAIANGLVTL	0.0239
HMAQPIPSGADIRAAREAAGMTLRRFAEYIAGPDFSTWSRYETGKPIRVKNISPEVWQRVRKFIAQNKG	0.129
HMAQQEMEIIPLRHRQVEQVMPTLRPLLEPGAALSGMNNQLILRASRKNREEIKQALAVIDT	0.121
HMAQSEDLMVMAQRILGGPEAQSFFQAEATRQGLAGFLPEPIPDFLQRLERKLSGSVGSATAHAMVAQTMG	-0.279
HMAQSLAQKINNYILTNRSSIANVAKSIGYSRTTVSRYLAGKYDSDPTDLENKLAEFLAHETGE	0.017
HMAQTEIIRVTKDIKKGDAITADKFEKVKVGAYNLPGNVVKNADELKGKFAAADLVRGDYILTSKLTDNP	0.0605
HMAQVRSTVERRENGTYTVELNLNDDVDNVMRLQLMVATKEMAEDLAQRFQKNPEQVYSQLVTALYG	-0.719
HMAQVSDDAELEKWADTAIDEHPKPVEEYRAGNAASINFLMGQVMKMSRGKANPGAVMQILKQKLD	0.22
HMAQVSDTGAIAKIVADAIAANPKQVQQYLDGNEKVLMYLVGQVMKLSKGKANPPMVIQLLKEQLG	-0.0882
HMAQVSDTGELEGVVDGVLAANAKSVADFQAGKENAFQYLIGQVMKETKGKANPEVVATLLRTKLS	0.121
HMARAGKLAQDMAVWTKETMLNTERNFISLRHFKRELLRRTLAPGESEQTVRAMEEAGYIQVKDGLVFPIK	-0.511
HMAREQISVSQMVRDVRDGQVKNIEVLGQELRLSYADGSQKVTRKEEGQQALEILFASDIDLAALDLEVQ	-1.16
HMARIDYHAMDSDDLSFSEGELLEIYDKPGSFWWKGRSLVSGDEGDIPS	-1.15
HMARKFQKDTGYLNKKERTWLLDFFPSLKKYLYTGAYIRSIIVVESNVTYTDKELPSNYTFTYKFA	0.176
HMARKISVEALGKYFPNSPMLAAAVAVTGVMKKDEFIHEMRASYKHKFAKKPEVIDGNMKALTMTFEA	-0.122
